Reference: patent publication US20260234276A1 (DOMAIN THERAPEUTICS, published 2026)
Several values for one entry are separate records, joined by “and”; a condition that tells them apart may be missing. Identical values can stand only once.

Columns and labels:
human CCR8 [1] = molecular target: T1, human CCR8 (human, UniProt P51685 1-355); assay: cell-based or functional assay
human CCR8 [2] = molecular target: T1, human CCR8; assay: cell-based or functional assay; remark: listed apart in the source
pm5 [3] = molecular target: T2, pm5 (human, sulfated tyrosines at Y15 and Y17); assay: ELISA on coated peptide [cont.]
Procedure, shortened: (§1)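 OD after 15 min TMB development reflects binding of each anti-CCR8 mAb, tested at 1 μg/mL and diluted 1/10, to CCR8-related peptides adsorbed at 500 ng/mL from carbonate/bicarbonate buffer. Antibody incubation lasted 90 min at room temperature.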

pm6 [4] = molecular target: T3, pm6 (human, sulfated tyrosines at Y16 and Y17); assay: ELISA on coated peptide [cont.]
Procedure, shortened: as §1

pm8 [5] = molecular target: T4, pm8 (human, sulfated tyrosines at Y15, Y16 and Y17); assay: ELISA on coated peptide [cont.]
Procedure, shortened: as §1

pm3 [6] = molecular target: T5, pm3 (human, sulfated tyrosine at Y17); assay: ELISA on coated peptide [cont.]
Procedure, shortened: as §1

human CCR8 [7] = molecular target: T1, human CCR8; assay: competition HTRF on HEK-293 cells with hCCR8; blocked ligand CCL1-AF647 [cont.]
human CCR8 [8] = molecular target: T1, human CCR8; assay: cell-based or functional assay; remark: listed apart in the source
human CCR8 [9] = molecular target: T1, human CCR8; assay: cell-based or functional assay; remark: listed apart in the source
pm4 = pm4 (human, sulfated tyrosine(s) among Tyr 15, Tyr 16, Tyr 17; marked only by underlining, lost in the text); assay: ELISA on coated peptide
Method: (§2) The specific binding properties of antibodies were evaluated by ELISA with coated CCR8 related peptides (500 ng/mL) in carbonate/bicarbonate buffer. Different peptides were used as described in Table 1 (see Example 1). Each anti-CCR8 mAb was tested at 1 μg/mL then diluted at 1/10. After an incubation at room temperature during 90 min, unbound mAbs were removed by washings. […] After washings, 3,3′,5,5′-tetramethylbenzidine (TMB) (Interchim, Montlugon, France) was added for 15 min. Then the optical density (OD) was determined by using a multiplate reader (Tecan, Lyon, France) and correlated with mAb reactivity on the panel of coated peptides.

pm1 = pm1 (human, sulfated tyrosine(s) among Tyr 15, Tyr 16, Tyr 17; marked only by underlining, lost in the text); assay: ELISA on coated peptide
Method: as §2

pm2 = pm2 (human, sulfated tyrosine(s) among Tyr 15, Tyr 16, Tyr 17; marked only by underlining, lost in the text); assay: ELISA on coated peptide
Method: as §2

human CCR8 [10] = molecular target: T1, human CCR8; assay: flow cytometry, HUT78 cells (native CCR8)
Method: The same staining protocol was applied on human CCR8 transfected CHO cell line versus wild type CHO cell line, cutaneous T cell lymphoma HUT78 cell line and human activated T cell model.
Briefly, 1·10⁵ cells per well in a 96 well plate were incubated with a dilution of unconjugated anti-CCR8 mAb at 10 μg/mL then diluted at 1/3.33, 4 dilution points (during 30 min at 4° C.). […] To determine EC50 value, 8 concentrations of anti-CCR8 mAb were tested. Unbound antibodies were washed away with PBS (Invitrogen by Thermofisher Scientific, Illkirch-Graffenstaden, France) supplemented by 2% Fetal Bovine Serum (Invitrogen by Thermofisher Scientific, Illkirch-Graffenstaden, France) and 2 mM EDTA (Invitrogen by Thermofisher Scientific, Illkirch-Graffenstaden, France). Subsequently, cells are centrifuged (5 min at 400 g) and bound antibody is detected with F(ab′)₂-Goat anti-Mouse IgG (H+L) Cross-Adsorbed Secondary Antibody, Alexa Fluor 488 (dilution 1/500) (Invitrogen by Thermofisher Scientific, Illkirch-Graffenstaden, France) or with F(ab′)₂-Goat anti-Human IgG Fc Secondary Antibody, PE (Invitrogen by Thermofisher Scientific, Illkirch-Graffenstaden, France) (dilution 1/1000) at 4° C. for 30 min. Detection reagent is washed away and cells are centrifuged (5 min at 400 g) and resuspended in 30 μL PBS. Bound detection antibody is quantified on a MacsQuant16 (Miltenyi, Gladbach, Germany) (B1 or B2 channel, 5000 events per acquisition).

pm5 [11] = molecular target: T2, pm5; assay: ELISA on coated peptide
Method: as §2

pm6 [12] = molecular target: T3, pm6; assay: ELISA on coated peptide
Method: as §2

pm8 [13] = molecular target: T4, pm8; assay: ELISA on coated peptide
Method: as §2

pm3 [14] = molecular target: T5, pm3; assay: ELISA on coated peptide
Method: as §2

human CCR8 [15] = molecular target: T1, human CCR8; assay: flow cytometry, hCCR8 transfected CHOK1 cells

T2 sequence (peptide, as listed by the source): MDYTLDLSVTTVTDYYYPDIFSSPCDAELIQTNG
T4 sequence (peptide, as listed by the source): as above
T3 sequence (peptide, as listed by the source): as above
T5 sequence (peptide, as listed by the source): as above
Chain of pm2 (human, sulfated tyrosine(s) among Tyr 15, Tyr 16, Tyr 17; marked only by underlining, lost in the text) (peptide, as listed by the source): as above
Chain of pm4 (human, sulfated tyrosine(s) among Tyr 15, Tyr 16, Tyr 17; marked only by underlining, lost in the text) (peptide, as listed by the source): as above
Chain of pm1 (human, sulfated tyrosine(s) among Tyr 15, Tyr 16, Tyr 17; marked only by underlining, lost in the text) (peptide, as listed by the source): as above

Binder	IC50 (Gi2 BRET, pH 6.5) (human CCR8 [1])	IC50 (Gi2 BRET, pH 7.4) (human CCR8 [1])	hCCL1 (100 nM) residual response, Protocol #2, mAb 0.08 µg/mL (human CCR8 [2]) [%]	hCCL1 (100 nM) residual response, Protocol #2, mAb 0.4 µg/mL (human CCR8 [2]) [%]	hCCL1 (100 nM) residual response, Protocol #2, mAb 10 µg/mL (human CCR8 [2]) [%]	hCCL1 (100 nM) residual response, Protocol #3, mAb 0.05 µg/mL (human CCR8 [2]) [%]	hCCL1 (100 nM) residual response, Protocol #3, mAb 0.5 µg/mL (human CCR8 [2]) [%]	hCCL1 (100 nM) residual response, Protocol #3, mAb 5 µg/mL (human CCR8 [2]) [%]	binding result (pm5 [3])	binding result (pm6 [4])	binding result (pm8 [5])	binding result (pm3 [6])	IC50 (read off the curve) (human CCR8 [7]) [µg/mL]	ADCC % Max lysis, NK cells Donor 1 (human CCR8 [8]) [%]	ADCC % Max lysis, NK cells Donor 2 (human CCR8 [8]) [%]	ADCC EC50, NK cells Donor 1 (human CCR8 [8]) [pM]	ADCC EC50, NK cells Donor 2 (human CCR8 [8]) [pM]	ADCP % Max of phagocytosis, monocyte-derived macrophages Donor 9 (human CCR8 [9]) [%]	% of labelled cells (human CCR8 [10]) [%]	binding result (pm5 [11])	further results
3-76 (antibody, human IgG1, kappa, V domains shown, humanized, human IgG1 kappa) VH: EVQLVESGGGLVQPGRSLRLSCTASGFTFNTYAMNWVRQAPGKGLEWVARIRSKSNNYATYYAASVKGRFTISRDDSKSIAYLQMNSLKTEDTAVYYCVRGREAYYRYDGGYYAMDVWGQGTTVTVSS VL: DIVMTQAAPSLPVTPGESASISCRSSKSLLHSNGNTYLYWFLQKPGQSPQLLIYRMSNLASGVPDRFSGSGSGTAFTLKISRVEAEDVGVYYCMQHLEYPFTFGSGTKLEIKR	0.024 µg/ml and 0.157 nM	0.048 µg/ml and 0.318 nM	88	82	64	88	71	70	binds	binds	binds	binds	~0.02	–	–	–	–	–	–	–	–
3-78 (antibody, human IgG1, kappa, humanized) heavy: not shown light: DIVMTQAAPSLSVTPGESASISCTSSKSLLHSNGNTYLYWFLQKPGQSPQLLIYRMSNLASGVPDRFSGSGSGTAFTLKISRVEAEDVGVYYCMQHREYPFTFGSGTKLEIKRTVAAPSVFIFPPSDEQLKSGTASVVCLLNNFYPREAKVQWKVDNALQSGNSQESVTEQDSKDSTYSLSSTLTLSKADYEKHKVYACEVTHQGLSSPVTKSFNRGEC	0.025 µg/ml and 0.165 nM	0.035 µg/ml and 0.232 nM	74	54	40	89	63	51	binds	binds	binds	binds	~0.1	30	28	6.43	0.42	9.65	32	–	binding result (pm4): binds; binding result (pm1): binds; binding result (pm2): binds
3-85 (antibody) heavy: not shown light: DIVMTQAAPSVSVTPGESVSISCTSSKSLLHSNGNTYLYWFLQRPGQSPQLLIYRMSNLASGVPDRFSGSGSGTAFTLRISRVEAEDVGVYYCMQHREYPFTFGSGTKLEIKRTVAAPSVFIFPPSDEQLKSGTASVVCLLNNFYPREAKVQWKVDNALQSGNSQESVTEQDSKDSTYSLSSTLTLSKADYEKHKVYACEVTHQGLSSPVTKSFNRGEC	–	–	–	–	–	–	–	–	–	–	–	–	–	31	26	73.3	90.4	7.27	–	–	–
3-83 (antibody) heavy: not shown light: DIVMTQAAPSLSVTPGESASISCTSSKSLLHSNGNTYLYWFLQKPGQSPQLLIYRMSNLASGVPDRFSGSGSGTAFTLKISRVEAEDVGVYYCMQHREYPFTFGSGTKLEIKRTVAAPSVFIFPPSDEQLKSGTASVVCLLNNFYPREAKVQWKVDNALQSGNSQESVTEQDSKDSTYSLSSTLTLSKADYEKHKVYACEVTHQGLSSPVTKSFNRGEC	–	–	–	–	–	–	–	–	–	–	–	–	–	22	20	2.24	2.16	8.29	34	–	EC50 (human CCR8 [10]): 400 pM
3-1 (antibody, V domains shown) VH: EVQLVETGGGLVQPKGSLKVSCAASGFTFNTNAMNWVRQAPGKGLEWVARIRSKSNNYATYYADSVKDRFIISRDDSQSMLYLQMNNLKTEDTAMYYCVRGGYYGTSVYFDVWGAGTTVTVSS VL: DIVMTQAAPSVPVTPGESVSISCRSSKSLLHSNGNTYLYWFLQRPGQSPQLLIYRMSNLASGVPDRFSGSGSGTAFTLRISRVEAEDVGVYYCMQHLEYPFTFGGGTKLEIK	> 4.5 µg/ml and > 30 nM	> 4.5 µg/ml and > 30 nM	–	–	–	–	–	–	–	–	–	–	–	–	–	–	–	–	–	binds	binding result (pm6 [12]): binds; binding result (pm8 [13]): binds; binding result (pm3 [14]): binds; % positive cells (human CCR8 [15]): 38.8%; MFI fold change to isotype ctrl (human CCR8 [15]): 2.61 fold
3-2 (antibody, V domains shown) VH: EVQLVESGGGLVKPGGSLKLSCAASGFTFSSYAMSWVRQTPEKRLEWVATINSGGSYTFYPDSVKGRFTISRDNAKNTLYLQMSSLRSVDTAIYYCARVSGYDERFAYWGQGTLVTVSA VL: DVLMTQTPLSLPVSLGAQASISCRSSQSIVHSNGNTYLEWYLQKPGQSPKLLIYKVSNRFSGVPDRFSGSGSGTDFTLKLSRVEAEDLGVYYCFQGSHVPPTFGGGTKLEIK	–	–	–	–	–	–	–	–	–	–	–	–	–	–	–	–	–	–	–	binds	binding result (pm6 [12]): binds; binding result (pm8 [13]): binds; binding result (pm3 [14]): binds; % positive cells (human CCR8 [15]): 51.2%; MFI fold change to isotype ctrl (human CCR8 [15]): 3.41 fold
